According to patent US20250026792A1, “SELF-ASSEMBLING PEPTIDES WITH HYALURONIC ACID BINDING DOMAINS AND METHODS OF USE THEREOF” (Northwestern University, priority 2022, published 2025):
“Also recorded” adds a separate entry of the source. Each block holds one molecule with its values, some of them ahead of it. Where a SMILES comes first, the peptide text is derived from it. The star is where a group is joined. Biotin = O=C1N[C@H]2[C@H](CS[C@H]2CCCCC(=O)*)N1

Legend:
[1] = Transmission electron microscopy (TEM) of peptide nanostructures; format: physicochemical; details: for TEM characterization, Phosphate Buffered Saline (i): PBS pH 7.4, 0.5% w/v; for TEM characterization, Phosphate Buffered Saline (i) / TEM characterization, Sodium Cacodylate Buffer (ii): 30 minutes sonication, 24 hrs at 37° C.; for TEM characterization, Sodium Cacodylate Buffer (ii): 20 mM sodium cacodylate pH 7.4, 0.5% w/v
Protocol: The sample and stain were filter-dried in between steps. Samples were collected 24 hours at 37° C. after 30 minutes of sonication. All TEM was performed on a Philips FEI Technai Spirit G2 electron microscope. Peptides were incubated in both PBS and SC.

[2] = Concentration-dependent peptide binding to hyaluronic acid coating (biotin-streptavidin fluorescence); details: for binding to hyaluronic acid with increasing concentrations of peptide (fluorescence intensity): 0-10 mg/ml peptide, PBS pH 7.4, 37° C., HA coating 10 μg/cm^2, FIG. 3; for HA binding, overall assessment: summary and discussion statements
Protocol: (§1) Peptides were incubated 24 hours at 37° C. Coatings (10 μg/cm^2) were previously dried overnight in milli-Q water. Overall significance was assessed using analysis of variance, with Tukey's multiple comparison post-hoc analysis between 1-scrm and experimental groups where n=4.
N-termini biotinylated peptides were added to coated plates at 0, 1, 2.5, 5 and 10 mg/ml overnight at 37° C. in phosphate buffered saline (PBS), pH 7.4, after which the plates were washed three times with PBS.

[3] = Circular dichroism (CD) of peptides; format: physicochemical; details: 20 mM Sodium Cacodylate; for Ellipticity ratio (222 nm/208 nm) / Ellipticity 208 nm / Ellipticity 222 nm: 1.25 mg/mL; for Ellipticity 208 nm / Ellipticity 222 nm: CD data given as [θ]M×10^−3; for wavelength Minimum of CD profile: 5.0 mg/mL
Protocol: Data is presented in ellipticity ([θ]M×10^−3) as a function of spectral wavelength (λ).
Sodium cacodylate (SC), 20 mM pH 7.4, without and with 20% TFE was used to reduce phosphate related background signal and enhance detected structures. Circular dichroism (CD) data were collected in millidegrees, 0, and converted to molar ellipticity, [θ]M, and are expressed in units of deg×cm^2×dmol^−1. Scan speeds and digital integration times were 500 nm/min and 1 second, respectively. The data on the Y axis of the CD plots is [θ]M×10^−3. […] Consequently, CD signals are reported in the 190-260 nm range.

[4] = test system: extracellular matrix (ECM) components: Collagen type I, II, III and IV, elastin, hyaluronic acid and Geltrex; experiment: ECM specificity binding test, whole panel; details: 5.0 mg/ml peptide, FIG. 4
Protocol: as §1, with “C. on collagens I-IV, elastin, hyaluronic acid, and Geltrex.” for “C.”, “pig/cm^2)” for “μg/cm^2)”, “ECM” for “1-scrm and experimental”
Hyaluronic acid, collagens I, II, III, and IV, elastin, and Geltrex were coated onto 96-well black plates (medium binding affinity) at 10 μg/cm^2 and were dried in milli-Q water at room temperature. N-termini biotinylated peptides were added to coated plates at 0, 1, 2.5, 5 and 10 mg/ml overnight at 37° C. in phosphate buffered saline (PBS), pH 7.4, after which the plates were washed three times with PBS. Fluorescent streptavidin-488 (4 μg/mL) was added to each well and incubated at 37° C. temperature for 24 hours, then thoroughly washed with PBS. The plates were read with a fluorescence microplate reader for fluorescence intensity (Ex 490 nm, Em 525 nm). All data were normalized to the background fluorescence intensity of Streptavidin-488.

Molecule: TKSKIKIVVKSKAKKLRLALVKRIKI [Peptide 6f-2, modification of mPEP35]
- TEM characterization, Phosphate Buffered Saline (i) [1]: Structure, but no discernible striations
- binding to hyaluronic acid with increasing concentrations of peptide (fluorescence intensity) [2]: no different than the negative reference peptide
- Ellipticity ratio (222 nm/208 nm) [3]: 0.52
- Ellipticity 208 nm [3]: −97.6
- Ellipticity 222 nm [3]: −50.6
- wavelength Minimum of CD profile [3]: 221 nm
- Ellipticity ratio (222 nm/208 nm) ([3]; 20% TFE): 0.84
- Ellipticity 208 nm ([3]; 20% TFE): −306
- Ellipticity 222 nm ([3]; 20% TFE): −257
- wavelength Minimum of CD profile ([3]; 20% TFE): 221 nm

Molecule: ASNLTKAAKSLKVRVIKKTKQKQVLKVL [2nd de novo, five B(X7)B domains]
- TEM characterization, Phosphate Buffered Saline (i) [1]: Structure, but no discernible striations
- Ellipticity ratio (222 nm/208 nm) [3]: 0.42
- Ellipticity 208 nm [3]: −115
- Ellipticity 222 nm [3]: −48.5
- wavelength Minimum of CD profile [3]: 224-225 nm
- Ellipticity ratio (222 nm/208 nm) ([3]; 20% TFE): 0.90
- Ellipticity 208 nm ([3]; 20% TFE): −371
- Ellipticity 222 nm ([3]; 20% TFE): −333
- wavelength Minimum of CD profile ([3]; 20% TFE): 221-222 nm

- TEM characterization, Sodium Cacodylate Buffer (ii) [1]: No structure or fibrils
Molecule: CC[C@H](C)[C@H](NC(=O)[C@H](CC(C)C)NC(=O)[C@H](CC(N)=O)NC(=O)[C@H](CC(C)C)NC(=O)[C@H](CCC(N)=O)NC(=O)[C@H](CC(C)C)NC(=O)[C@H](CCC(N)=O)NC(=O)[C@H](CC(C)C)NC(=O)[C@H](CCCCN)NC(=O)[C@H](CCCCN)NC(=O)[C@H](CCCCN)NC(=O)[C@H](CCCCN)NC(=O)[C@H](CCCCN)NC(=O)CCCC[C@@H]1SC[C@@H]2NC(=O)N[C@@H]21)C(=O)N[C@@H](CCCCN)C(=O)N[C@@H](CCCCN)C(=O)N[C@@H](CCCCN)C(=O)N[C@H](C(=O)N[C@@H](CCC(N)=O)C(=O)N[C@H](C(=O)N[C@@H](CO)C(=O)N[C@H](C(=O)N[C@H](C(=O)N[C@H](C(=O)N[C@H](C(=O)N[C@@H](CCCNC(=N)N)C(=O)N[C@@H](CCCNC(=N)N)C(=O)N[C@@H](Cc1c[nH]cn1)C(=O)O)C(C)C)C(C)C)C(C)C)C(C)C)C(C)C)C(C)C [Peptide 1-scrm, reference compound] (Biotin-KKKKKLQLQLNLIKKKVQVSVVVVRRH-OH)

Molecule: CC[C@H](C)[C@H](NC(=O)[C@H](CCCCN)NC(=O)[C@H](CCC(N)=O)NC(=O)[C@H](CCCCN)NC(=O)[C@H](CC(C)C)NC(=O)CCCC[C@@H]1SC[C@@H]2NC(=O)N[C@@H]21)C(=O)N[C@@H](CCCCN)C(=O)N[C@@H](Cc1c[nH]cn1)C(=O)N[C@H](C(=O)N[C@H](C(=O)N[C@@H](CCCCN)C(=O)N[C@@H](CC(C)C)C(=O)N[C@@H](CCCCN)C(=O)N[C@H](C(=O)N[C@H](C(=O)N[C@H](C(=O)N[C@@H](CCCCN)C(=O)N[C@@H](CC(C)C)C(=O)N[C@@H](CCCNC(=N)N)C(=O)N[C@@H](CO)C(=O)N[C@@H](CCC(N)=O)C(=O)N[C@@H](CC(C)C)C(=O)N[C@H](C(=O)N[C@@H](CCCCN)C(=O)N[C@@H](CCCNC(=N)N)C(=O)N[C@@H](CCCCN)C(=O)N[C@@H](CCC(N)=O)C(=O)N[C@@H](CC(N)=O)C(=O)O)C(C)C)C(C)C)C(C)C)C(C)C)C(C)C)C(C)C [mPEP35, reference compound] (Biotin-LKQKIKHVVKLKVVVKLRSQLVKRKQN-OH)
- TEM characterization, Sodium Cacodylate Buffer (ii) [1]: no fibers or structure can be observed; also recorded: No structure or fibrils

Molecule: LKLKSSHSIKLKVKSKQRSALVSRQKA [Peptide 6b, mPEP35 variant]
- TEM characterization, Phosphate Buffered Saline (i) [1]: Structure with striations
- wavelength Minimum of CD profile [3]: 227 nm
- Ellipticity ratio (222 nm/208 nm) ([3]; 20% TFE): 0.87
- Ellipticity 208 nm ([3]; 20% TFE): −229
- Ellipticity 222 nm ([3]; 20% TFE): −199
- wavelength Minimum of CD profile ([3]; 20% TFE): 224 nm

- binding to hyaluronic acid with increasing concentrations of peptide (fluorescence intensity) [2]: increases dramatically
- binding to hyaluronic acid ([2]; 10 mg/ml peptide): bound significantly
- peptide concentrations at which increased binding to hyaluronic acid is shown ([2]; FIG. 3): 10 mg/mL
- HA binding, overall assessment [2]: HA specific and robust binders
- binding to the ECMs (for 17x-3: the ECMs other than hyaluronic acid) [4]: did not show significant binding
Molecule: TQLRNKYTFLARARNALAVRTKQNIKS [BHP3, designed from 42 residue peptide BH-P]
- TEM characterization, Phosphate Buffered Saline (i) [1]: form fibers with many striations that form larger fibers and the larger fibers tend to form a mesh network
- nanofiber formation in TEM, overall ([1]; both PBS and sodium cacodylate): consistent nanofibers; also recorded: predominantly form fibers with striations and furthermore form a mesh network
- Ellipticity ratio (222 nm/208 nm) [3]: 0.79
- Ellipticity 208 nm [3]: −88.4
- Ellipticity 222 nm [3]: −70.1
- wavelength Minimum of CD profile [3]: 226 nm
- wavelength Minimum of CD profile ([3]; 20% TFE): 226 nm

Molecule: TKTKIKIIVKLKSKAKLRIKLVKRHKS [Peptide 8h-2, modification of mPEP35]
- TEM characterization, Sodium Cacodylate Buffer (ii) [1]: No discernible structure.
- TEM characterization, Phosphate Buffered Saline (i) [1]: No discernible structure.
- HA binding, overall assessment [2]: proficient and specific binders
- Ellipticity ratio (222 nm/208 nm) [3]: 0.42
- Ellipticity 208 nm [3]: −135
- Ellipticity 222 nm [3]: −57.3
- wavelength Minimum of CD profile [3]: 224 nm
- Ellipticity ratio (222 nm/208 nm) ([3]; 20% TFE): 0.88
- Ellipticity 208 nm ([3]; 20% TFE): −283
- Ellipticity 222 nm ([3]; 20% TFE): −249
- wavelength Minimum of CD profile ([3]; 20% TFE): 222-224 nm
